# Measurements reported in patent US20150344570A1 (published 2015).
# B1: GpH7-B3 variant S298_11K/GpL16-k0 (antibody, human IgG1, kappa)
# heavy: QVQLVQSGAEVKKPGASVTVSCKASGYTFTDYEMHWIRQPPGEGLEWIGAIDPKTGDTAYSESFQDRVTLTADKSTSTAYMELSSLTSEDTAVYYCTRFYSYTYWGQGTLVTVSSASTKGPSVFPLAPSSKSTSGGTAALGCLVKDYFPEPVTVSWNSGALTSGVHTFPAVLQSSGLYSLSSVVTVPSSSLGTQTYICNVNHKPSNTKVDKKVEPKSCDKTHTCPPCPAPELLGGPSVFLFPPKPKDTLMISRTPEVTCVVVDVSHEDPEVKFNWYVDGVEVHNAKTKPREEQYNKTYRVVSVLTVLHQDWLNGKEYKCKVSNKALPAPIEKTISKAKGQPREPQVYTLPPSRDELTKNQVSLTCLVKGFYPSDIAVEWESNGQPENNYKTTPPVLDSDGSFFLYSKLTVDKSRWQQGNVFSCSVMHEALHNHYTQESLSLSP
# light: DIVMTQSPLSLPVTPGEPASISCQASESLVHSNRNTYLHWYLQKPGQSPQLLIYKVSNRFSGVPDRFSGSGSGTDFTLKISRVEAEDVGVYYCSQNTHVPPTFGQGTKVEIERTVAAPSVFIFPPSDEQLKSGTASVVCLLNNFYPREAKVQWKVDNALQSGNSQESVTEQDSKDSTYSLSSTLTLSKADYEKHKVYACEVTHQGLSSPVTKSFNRGEC
# notes: also called Ho Ab S298_11K
# B2: GpH7-B3 variant P271_06M/GpL16-k0 (antibody, human IgG1, kappa)
# heavy: not shown
# light: B1 light
# notes: also called Ho Ab P271_06M
# B3: GpH7-B3 variant Q295_03V/GpL16-k0 (antibody, human IgG1, kappa)
# heavy: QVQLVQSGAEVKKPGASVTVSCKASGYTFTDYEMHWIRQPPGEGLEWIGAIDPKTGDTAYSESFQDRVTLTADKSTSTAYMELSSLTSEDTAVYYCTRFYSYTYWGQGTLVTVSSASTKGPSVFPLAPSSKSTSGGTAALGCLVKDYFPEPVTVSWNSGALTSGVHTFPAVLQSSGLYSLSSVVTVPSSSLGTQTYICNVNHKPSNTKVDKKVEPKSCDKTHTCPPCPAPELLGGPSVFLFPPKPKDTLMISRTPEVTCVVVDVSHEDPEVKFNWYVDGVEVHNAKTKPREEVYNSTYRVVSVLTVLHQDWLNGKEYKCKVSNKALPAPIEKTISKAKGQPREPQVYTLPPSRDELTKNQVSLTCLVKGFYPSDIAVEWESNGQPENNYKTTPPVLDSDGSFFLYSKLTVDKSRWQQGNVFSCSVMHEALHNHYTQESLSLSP
# light: B1 light
# notes: also called Ho Ab Q295_03V
# B4: GpH7-B3 variant P271_07I/GpL16-k0 (antibody, human IgG1, kappa)
# heavy: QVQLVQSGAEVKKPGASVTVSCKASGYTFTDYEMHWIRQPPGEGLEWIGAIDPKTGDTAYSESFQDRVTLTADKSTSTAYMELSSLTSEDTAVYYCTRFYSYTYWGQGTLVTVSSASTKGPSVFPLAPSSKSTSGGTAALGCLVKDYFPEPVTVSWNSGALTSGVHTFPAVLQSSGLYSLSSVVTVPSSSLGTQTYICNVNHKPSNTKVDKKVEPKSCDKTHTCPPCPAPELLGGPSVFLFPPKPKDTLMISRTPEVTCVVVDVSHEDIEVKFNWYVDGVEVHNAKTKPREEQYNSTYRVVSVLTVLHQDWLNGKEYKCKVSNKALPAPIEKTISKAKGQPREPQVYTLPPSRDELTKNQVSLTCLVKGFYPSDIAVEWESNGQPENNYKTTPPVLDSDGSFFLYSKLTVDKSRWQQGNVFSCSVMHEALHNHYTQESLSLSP
# light: B1 light
# notes: also called Ho Ab P271_07I
# B5: GpH7-B3 variant Q295_08L/GpL16-k0 (antibody, human IgG1, kappa)
# heavy: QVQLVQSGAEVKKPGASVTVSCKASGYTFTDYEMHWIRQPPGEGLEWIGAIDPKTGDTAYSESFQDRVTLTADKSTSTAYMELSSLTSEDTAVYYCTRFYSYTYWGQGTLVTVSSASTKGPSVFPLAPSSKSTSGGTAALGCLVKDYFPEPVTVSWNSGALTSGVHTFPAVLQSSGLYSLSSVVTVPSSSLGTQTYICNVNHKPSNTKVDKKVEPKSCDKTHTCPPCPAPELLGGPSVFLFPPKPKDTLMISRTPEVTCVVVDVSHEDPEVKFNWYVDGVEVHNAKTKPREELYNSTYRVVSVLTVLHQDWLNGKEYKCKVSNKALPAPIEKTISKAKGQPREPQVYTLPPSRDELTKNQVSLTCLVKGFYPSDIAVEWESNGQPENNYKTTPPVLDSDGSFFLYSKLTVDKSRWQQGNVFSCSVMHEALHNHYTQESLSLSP
# light: B1 light
# notes: also called Ho Ab Q295_08L
# B6: GpH7-B3 variant P271_11K/GpL16-k0 (antibody, human IgG1, kappa)
# heavy: not shown
# light: B1 light
# notes: also called Ho Ab P271_11K
# B7: GpH7-B3 variant Q295_05P/GpL16-k0 (antibody, human IgG1, kappa)
# heavy: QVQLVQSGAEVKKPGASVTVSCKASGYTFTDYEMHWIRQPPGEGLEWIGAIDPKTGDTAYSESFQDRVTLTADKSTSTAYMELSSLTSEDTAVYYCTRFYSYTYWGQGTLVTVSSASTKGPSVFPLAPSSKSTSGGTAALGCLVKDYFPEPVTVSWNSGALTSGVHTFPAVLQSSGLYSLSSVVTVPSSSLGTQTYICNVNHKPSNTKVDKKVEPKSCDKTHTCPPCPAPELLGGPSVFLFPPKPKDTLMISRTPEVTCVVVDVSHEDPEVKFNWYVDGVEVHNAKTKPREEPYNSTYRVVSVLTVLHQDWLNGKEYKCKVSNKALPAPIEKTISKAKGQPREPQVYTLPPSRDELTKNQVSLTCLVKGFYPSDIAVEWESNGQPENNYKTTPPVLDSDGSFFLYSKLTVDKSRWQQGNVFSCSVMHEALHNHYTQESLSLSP
# light: B1 light
# notes: also called Ho Ab Q295_05P
# B8: GpH7-B3 variant Q295_02A/GpL16-k0 (antibody, human IgG1, kappa)
# heavy: not shown
# light: B1 light
# notes: also called Ho Ab Q295_02A
# B9: GpH7-B3 variant Q295_04F/GpL16-k0 (antibody, human IgG1, kappa)
# heavy: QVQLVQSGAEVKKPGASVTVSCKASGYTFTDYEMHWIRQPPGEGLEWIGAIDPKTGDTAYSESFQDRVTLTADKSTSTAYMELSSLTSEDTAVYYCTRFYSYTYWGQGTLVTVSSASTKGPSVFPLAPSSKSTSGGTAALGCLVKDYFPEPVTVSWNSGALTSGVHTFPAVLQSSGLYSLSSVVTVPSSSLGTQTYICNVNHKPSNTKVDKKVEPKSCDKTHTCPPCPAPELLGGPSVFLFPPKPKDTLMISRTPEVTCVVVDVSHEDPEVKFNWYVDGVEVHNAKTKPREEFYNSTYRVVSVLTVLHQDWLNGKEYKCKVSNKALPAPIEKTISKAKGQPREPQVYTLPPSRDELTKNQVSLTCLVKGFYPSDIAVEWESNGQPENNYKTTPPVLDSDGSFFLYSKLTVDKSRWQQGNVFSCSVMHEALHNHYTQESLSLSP
# light: B1 light
# notes: also called Ho Ab Q295_04F
# B10: GpH7-B3 variant P271_12R/GpL16-k0 (antibody, human IgG1, kappa)
# heavy: not shown
# light: B1 light
# notes: also called Ho Ab P271_12R
# B11: GpH7-B3 variant P271_13S/GpL16-k0 (antibody, human IgG1, kappa)
# heavy: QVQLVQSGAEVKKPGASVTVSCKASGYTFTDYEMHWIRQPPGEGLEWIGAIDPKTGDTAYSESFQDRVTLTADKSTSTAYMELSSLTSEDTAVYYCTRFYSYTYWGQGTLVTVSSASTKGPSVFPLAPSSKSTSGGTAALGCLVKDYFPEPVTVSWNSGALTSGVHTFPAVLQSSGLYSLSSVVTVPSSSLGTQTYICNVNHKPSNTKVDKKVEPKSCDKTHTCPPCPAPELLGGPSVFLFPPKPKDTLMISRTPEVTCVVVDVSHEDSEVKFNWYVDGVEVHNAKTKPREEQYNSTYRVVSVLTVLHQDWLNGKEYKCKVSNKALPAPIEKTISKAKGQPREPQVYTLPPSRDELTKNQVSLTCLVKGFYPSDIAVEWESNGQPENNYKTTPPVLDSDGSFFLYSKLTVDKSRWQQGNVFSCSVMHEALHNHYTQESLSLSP
# light: B1 light
# notes: also called Ho Ab P271_13S
# B12: GpH7-B3 variant P271_04F/GpL16-k0 (antibody, human IgG1, kappa)
# heavy: not shown
# light: B1 light
# notes: also called Ho Ab P271_04F
# B13: GpH7-B3 variant P271_20W/GpL16-k0 (antibody, human IgG1, kappa)
# heavy: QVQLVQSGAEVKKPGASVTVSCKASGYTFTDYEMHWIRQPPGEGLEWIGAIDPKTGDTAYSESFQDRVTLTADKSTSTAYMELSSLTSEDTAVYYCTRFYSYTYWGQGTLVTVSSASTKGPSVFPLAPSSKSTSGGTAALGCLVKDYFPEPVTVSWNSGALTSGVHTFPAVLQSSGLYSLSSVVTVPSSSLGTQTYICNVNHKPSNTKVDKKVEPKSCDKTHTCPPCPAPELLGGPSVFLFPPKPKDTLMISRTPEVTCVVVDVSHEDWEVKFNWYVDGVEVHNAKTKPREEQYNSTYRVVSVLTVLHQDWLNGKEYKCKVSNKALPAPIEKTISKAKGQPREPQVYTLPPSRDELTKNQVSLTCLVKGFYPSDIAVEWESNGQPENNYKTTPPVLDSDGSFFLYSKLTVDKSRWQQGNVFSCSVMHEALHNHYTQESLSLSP
# light: B1 light
# notes: also called Ho Ab P271_20W
# B14: GpH7-B3 variant Q295_07I/GpL16-k0 (antibody, human IgG1, kappa)
# heavy: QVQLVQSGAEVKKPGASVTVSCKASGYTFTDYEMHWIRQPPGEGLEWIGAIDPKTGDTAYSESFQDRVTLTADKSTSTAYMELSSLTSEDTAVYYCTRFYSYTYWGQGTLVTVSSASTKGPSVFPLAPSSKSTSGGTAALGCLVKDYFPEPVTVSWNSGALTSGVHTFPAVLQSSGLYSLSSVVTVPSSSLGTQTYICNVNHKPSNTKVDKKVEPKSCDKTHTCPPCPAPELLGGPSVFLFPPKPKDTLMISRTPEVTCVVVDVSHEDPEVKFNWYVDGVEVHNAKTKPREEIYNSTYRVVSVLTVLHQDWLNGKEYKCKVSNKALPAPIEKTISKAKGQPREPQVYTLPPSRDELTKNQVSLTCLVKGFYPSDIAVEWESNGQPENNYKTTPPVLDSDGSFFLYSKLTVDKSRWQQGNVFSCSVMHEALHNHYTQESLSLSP
# light: B1 light
# notes: also called Ho Ab Q295_07I
# B15: GpH7-A5/GpH7-B3 variant E333_14T/GpL16-k0 (antibody, human IgG1, kappa)
# heavy 1: not shown
# heavy 2: not shown
# light: B1 light
# notes: change in the GpH7-B3 H chain only; also called He Ab
# B16: GpH7-A5/GpH7-B3 variant I336_03V/GpL16-k0 (antibody, human IgG1, kappa)
# heavy 1: not shown
# heavy 2: not shown
# light: B1 light
# notes: as for B15
# B17: GpH7-A5/GpH7-B3 variant S324_18N/GpL16-k0 (antibody, human IgG1, kappa)
# heavy 1: not shown
# heavy 2: not shown
# light: B1 light
# notes: as for B15
# B18: GpH7-A5/GpH7-B3 variant S324_10E/GpL16-k0 (antibody, human IgG1, kappa)
# heavy 1: not shown
# heavy 2: not shown
# light: B1 light
# notes: as for B15
# B19: GpH7-A5/GpH7-B3 variant T335_02A/GpL16-k0 (antibody, human IgG1, kappa)
# heavy 1: not shown
# heavy 2: not shown
# light: B1 light
# notes: as for B15
# B20: GpH7-A5/GpH7-B3 variant P329_01G/GpL16-k0 (antibody, human IgG1, kappa)
# heavy 1: not shown
# heavy 2: not shown
# light: B1 light
# notes: as for B15
# B21: GpH7-A5/GpH7-B3 variant T335_05P/GpL16-k0 (antibody, human IgG1, kappa)
# heavy 1: not shown
# heavy 2: not shown
# light: B1 light
# notes: as for B15
# B22: GpH7-A5/GpH7-B3 variant S324_15Y/GpL16-k0 (antibody, human IgG1, kappa)
# heavy 1: not shown
# heavy 2: not shown
# light: B1 light
# notes: as for B15
# B23: GpH7-A5/GpH7-B3 variant S324_20W/GpL16-k0 (antibody, human IgG1, kappa)
# heavy 1: not shown
# heavy 2: not shown
# light: B1 light
# notes: as for B15
# B24: GpH7-A5/GpH7-B3 variant T335_01G/GpL16-k0 (antibody, human IgG1, kappa)
# heavy 1: not shown
# heavy 2: not shown
# light: B1 light
# notes: as for B15
# B25: GpH7-A5/GpH7-B3 variant T335_06M/GpL16-k0 (antibody, human IgG1, kappa)
# heavy 1: not shown
# heavy 2: not shown
# light: B1 light
# notes: as for B15
# B26: GpH7-A5/GpH7-B3 variant E333_15Y/GpL16-k0 (antibody, human IgG1, kappa)
# heavy 1: not shown
# heavy 2: not shown
# light: B1 light
# notes: as for B15
# B27: GpH7-A5/GpH7-B3 variant T335_12R/GpL16-k0 (antibody, human IgG1, kappa)
# heavy 1: not shown
# heavy 2: not shown
# light: B1 light
# notes: as for B15
# B28: GpH7-A5/GpH7-B3 variant T335_11K/GpL16-k0 (antibody, human IgG1, kappa)
# heavy 1: not shown
# heavy 2: not shown
# light: B1 light
# notes: as for B15
# B29: GpH7-A5/GpH7-B3 variant S324_12R/GpL16-k0 (antibody, human IgG1, kappa)
# heavy 1: not shown
# heavy 2: not shown
# light: B1 light
# notes: as for B15
# B30: GpH7-A5/GpH7-B3 variant S324_19Q/GpL16-k0 (antibody, human IgG1, kappa)
# heavy 1: not shown
# heavy 2: not shown
# light: B1 light
# notes: as for B15
# B31: GpH7-A5/GpH7-B3 variant S324_16H/GpL16-k0 (antibody, human IgG1, kappa)
# heavy 1: not shown
# heavy 2: not shown
# light: B1 light
# notes: as for B15
# B32: GpH7-A5/GpH7-B3 variant I336_01G/GpL16-k0 (antibody, human IgG1, kappa)
# heavy 1: not shown
# heavy 2: not shown
# light: B1 light
# notes: as for B15
# B33: GpH7-A5/GpH7-B3 variant I336_02A/GpL16-k0 (antibody, human IgG1, kappa)
# heavy 1: not shown
# heavy 2: not shown
# light: B1 light
# notes: as for B15
# B34: GpH7-A5/GpH7-B3 variant E333_16H/GpL16-k0 (antibody, human IgG1, kappa)
# heavy 1: not shown
# heavy 2: not shown
# light: B1 light
# notes: as for B15
# B35: GpH7-A5/GpH7-B3 variant I332_12R/GpL16-k0 (antibody, human IgG1, kappa)
# heavy 1: not shown
# heavy 2: not shown
# light: B1 light
# notes: as for B15
# B36: GpH7-A5/GpH7-B3 variant K334_01G/GpL16-k0 (antibody, human IgG1, kappa)
# heavy 1: not shown
# heavy 2: not shown
# light: B1 light
# notes: as for B15
# B37: GpH7-A5/GpH7-B3 variant S324_14T/GpL16-k0 (antibody, human IgG1, kappa)
# heavy 1: not shown
# heavy 2: not shown
# light: B1 light
# notes: as for B15
# B38: GpH7-A5/GpH7-B3 variant S324_08L/GpL16-k0 (antibody, human IgG1, kappa)
# heavy 1: not shown
# heavy 2: not shown
# light: B1 light
# notes: as for B15
# B39: GpH7-A5/GpH7-B3 variant S324_09D/GpL16-k0 (antibody, human IgG1, kappa)
# heavy 1: not shown
# heavy 2: not shown
# light: B1 light
# notes: as for B15
# B40: GpH7-A5/GpH7-B3 variant S324_11K/GpL16-k0 (antibody, human IgG1, kappa)
# heavy 1: not shown
# heavy 2: not shown
# light: B1 light
# notes: as for B15
# B41: GpH7-A5/GpH7-B3 variant K334_09D/GpL16-k0 (antibody, human IgG1, kappa)
# heavy 1: not shown
# heavy 2: not shown
# light: B1 light
# notes: as for B15
# B42: GpH7-A5/GpH7-B3 variant P329_02A/GpL16-k0 (antibody, human IgG1, kappa)
# heavy 1: not shown
# heavy 2: not shown
# light: B1 light
# notes: as for B15
# Target: T1, FcγRIa (human, UniProt P12314 16-292)
# T1 construct: extracellular domain; Soluble extracellular domain expressed in FreeStyle293 cells, used as analyte in Biacore; also called FcgRI; 1a; not shown: His tag attached to the C terminus
# T1 sequence (P12314 16-292): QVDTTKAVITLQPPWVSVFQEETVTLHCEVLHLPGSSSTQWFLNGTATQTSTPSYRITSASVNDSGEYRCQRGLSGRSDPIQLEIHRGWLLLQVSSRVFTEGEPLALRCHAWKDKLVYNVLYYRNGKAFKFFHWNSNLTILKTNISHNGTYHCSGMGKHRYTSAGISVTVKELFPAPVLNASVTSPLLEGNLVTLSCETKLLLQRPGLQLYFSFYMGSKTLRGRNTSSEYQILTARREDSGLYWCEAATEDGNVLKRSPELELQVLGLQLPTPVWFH
# Experiment: SPR (Biacore); Ho Ab vs HoCon Ab GpH7-B3/GpL16-k0
# Procedure: Analysis of interaction between objective antibody and the FcγR was carried out using Biacore T100 (GE Healthcare). HBS-EP+ (GE Healthcare) was used as the running buffer, and the measurement temperature was set to 25° C. Chips produced by immobilizing the antigen peptide by the amine coupling method to a Series S Sencor Chip CM5 (GE Healthcare), or alternatively, chips produced by allowing preliminarily biotinylated antigen peptides to interact with and immobilize onto a Series S Sensor Chip SA (certified) (GE Healthcare) were used. Antibodies of interest were captured onto an antigen peptide-immobilized chip, and allowed to interact to each FcγR diluted with running buffer. To regenerate and repeatedly use the chip, the antibodies captured on the chip were washed off by reacting 10 mM glycine-HCl, pH 1.5.
row,Binder,Ho/Con_1a
1,B1,"90.4 relative binding, control = 100"
2,B2,"102 relative binding, control = 100"
3,B3,"102 relative binding, control = 100"
4,B4,"102 relative binding, control = 100"
5,B5,"103 relative binding, control = 100"
6,B6,"101 relative binding, control = 100"
7,B7,"101 relative binding, control = 100"
8,B8,"104 relative binding, control = 100"
9,B9,"100 relative binding, control = 100"
10,B10,"101 relative binding, control = 100"
11,B11,"101 relative binding, control = 100"
12,B12,"100 relative binding, control = 100"
13,B13,"102 relative binding, control = 100"
14,B14,"101 relative binding, control = 100"

# Target: T2, FcγRIa extracellular domain with C-terminal His tag (human, UniProt P12314 16-292)
# T2 construct: extracellular domain; soluble analyte in Biacore; also called FcgRI; not shown: His tag at the C terminus
# T2 sequence (P12314 16-292): as above
# Experiment: SPR, binding relative to GpH7-A5/GpH7-B3/GpL16-k0 = 100
row,Binder,He/Con_1a
1,B15,102 % of control
2,B16,105 % of control
3,B17,116 % of control
4,B18,105 % of control
5,B19,103 % of control
6,B20,101 % of control
7,B21,106 % of control
8,B22,114 % of control
9,B23,114 % of control
10,B24,104 % of control
11,B25,107 % of control
12,B26,101 % of control
13,B27,113 % of control
14,B28,111 % of control
15,B29,102 % of control
16,B30,112 % of control
17,B31,113 % of control
18,B32,109 % of control
19,B33,106 % of control
20,B34,101 % of control
21,B35,100 % of control
22,B36,104 % of control
23,B37,121 % of control
24,B38,103 % of control
25,B39,104 % of control
26,B40,102 % of control
27,B41,106 % of control
28,B42,102 % of control

# Target: T3, FcγRIIb extracellular domain with C-terminal His tag (human, UniProt P31994 43-217)
# T3 construct: extracellular domain; soluble analyte in Biacore; also called FcgRIIb; not shown: His tag at the C terminus
# T3 sequence (looked up): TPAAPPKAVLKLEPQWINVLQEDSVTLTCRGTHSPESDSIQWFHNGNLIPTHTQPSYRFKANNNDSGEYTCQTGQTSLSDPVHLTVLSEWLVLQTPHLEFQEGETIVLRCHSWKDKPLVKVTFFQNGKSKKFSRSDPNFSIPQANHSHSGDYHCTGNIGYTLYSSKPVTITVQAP
# Experiment: as above
row,Binder,He/Con_2b
1,B15,86.1 % of control
2,B16,90.3 % of control
3,B17,81.1 % of control
4,B18,77.4 % of control
5,B19,94 % of control
6,B20,41.7 % of control
7,B21,99.9 % of control
8,B22,88.2 % of control
9,B23,87.5 % of control
10,B24,96.7 % of control
11,B25,99.4 % of control
12,B26,94.4 % of control
13,B27,91.9 % of control
14,B28,91 % of control
15,B29,63.1 % of control
16,B30,66.8 % of control
17,B31,83.5 % of control
18,B32,90.1 % of control
19,B33,84.9 % of control
20,B34,83.3 % of control
21,B35,48.9 % of control
22,B36,92.5 % of control
23,B37,88.4 % of control
24,B38,89.6 % of control
25,B39,85.8 % of control
26,B40,68.6 % of control
27,B41,94.8 % of control
28,B42,40.5 % of control
